The values below come from a protein production outcome set (Wang et al. 2014).

A short description of the series: label from the status in PepcDB records.
For “MLTVEPSEIQLTPGPILSLYLDLAGHLNWHIRSNLYLRGAEPRLDQKDPAAAAILELSLRLGSAPGGSVSCCWVTVSPGRMSVIDHVRDMAAAGLHSNVRLLSSLLLTMSNNNPELFSPSQKYQLLVYHADSLFHDKEYRNAVSKYTMALQQKKALSKTSKCLPSEIEVKYKMAECYTMLKLDKDAIAILDGIPSRQRTPKINMMLANLYKKAGQERPSVTSYKEVLRQCPLALDAILGLLSLSVKGAEVASMTMNVIQTVPNLDWLSVWIKAYAFVHTGDNSRAINTICSLEKKSLLRDNVDLLGSLADLYFRAGDNKNSVLKFEQAQMLDPYLIKGMDVYGYLLAREGRLEDVENLGCRLFNISDQHAEPWVVSGCHSFYSKRYSRALYLGAKAIQLNSNSVQALLLKGAALRNMGRVQEAIIHFREAIRLAPCRLDCYEGLIECYLASNSIREAMVMANNVYKTLGANAQTLTLLATVCLEDPVTQEKAKTLLDKALAQRPDYVKAVVKKAELLSREQKYEDGIALLRNALANQSDCVLHRILGDFLVSVNEYQEAMDQYSIALSLDPNDQKSLEGMQKMEKEGSPTDATQEDDVDDMEGSGEEGDLEGSDSEAAQWADQEQWFGMQ”, the protein production entry is recorded as “failed”. The entry for “MLTVGILGGGQLGWMTILEGRKLGFKFHVLEDKENAPACRVADRCFRTGQISEFVDSCDIITYEFEHIKDEVLEKCESKLIPNPQALYVKKSRIREKLFLKKHGFPVPEFLVIKRDEIIDALKSFKLPVVIKAEKLGYDGKGQYRIKKLEDANQVVKNHDKEESFIIEEFVKFEAEISCIGVRDREGKTYFYPQPFNKHEEGILIYNYVPYAKLKEAEEITKRLMELLDIVGVFTVEFFLLKDGRVLINEFAPRVHNTGHWTLDGAYTSQFENLLRAITEMPLGSTELKLPSGMVNILGKSYEEIPLKEILSVEGAKLYWYGKEKKPRRKVGHVNVVGRSKEEVVEKVERVFTLLKGSREKLPAP” is “not failed”. With “MLVLILLSSSLAIFAIINLSYSLGDAKAINASGSLRMQSYRLMFYANSGSEAAQEKITEFENTLHSEALHPSKSWLSPKKIAAQYQLVIDKWLVMKYYIEQENSRDYAASLKDFVDTIDLLVLEMEHHAAFKLRLLAASQIFGLGLMLSIAFLAVRFTKRKVVVPLQQLMESANTISKGNFEIEMPETEYIELTALTDALQKTARELATLYGNLESQVAEKTLALTRANNELAFLYDTLLTLNAKKLDYKALKAALNQLKDYESIDYLRLIIQYPEQELEMIEANGGWPESADNSTRFPLQFEQANLGYLELISAQDINTPLFKNFAIMLTRSIVIHNATEQRQQLALMEERGVIARELHDSLGQVLSFLKIQISLLRKNLDHSCRSPAVEVQLTEINEGVSTAYVQLRELLSTFRLTIKEPNLKNAMEAMLEQLRANTDIKIHLDYKLSPQWLEAKQHIHILQITREATLNAIKHANASHINIRCYKDDRGMVNISVSDNGVGIGHIKERDQHFGIGIMHERASKLDGEVVFSSNDTHTNSTATTEQRHQENPDSPLESHNTSNLSQGTIVTLIFPSQQEPTHG”, the protein production entry is listed as “failed”. Take “MLVLSYILLFASALFAWNMGSHYSGAVMGMAYGSKSLTIRQATVIAATFAFLGTITASSGVVHTYAFSLVGTTTIRQLTAALLGASVAILISTILKLPASTIQVYTFSLLFVGLASNIKLMYGGIEIVLSMWILMPLAAMLLSYLLAPKLVSKLADDSRKLKIIIIGSSVFSSFTLGSNDVSSAISPLVKVGILTGIVPYVFGGFFIGLGLITWGQRLIRRVGTEVVKTNAPLAAAAQLTEAIVIISGNLVGYNASINQTIIMSIYGAKRSMKSHVVTPMIFRSILLNWTVSSLISAVFGLFFLFILNLYI”: the protein production result is “failed”. As for “MLVSIILVNYNGADILPDCLNSIDKFISKDNCEILLVDNASQDNSYELVAQDFPDVKIVRLPKNYGFGAGNNAGAKIAKGKFLLLLNTDTILTTNILPHLIDLMRENPDVGIIGTKLVFPDETFQISFAYTIGIKGEYKSRKLHEYAEDKSKLNSLEQEFNTIKEVDIVVGAALFIRADLFHSVGGFDEKFFIYFEDADLCRRVQNQGYKILYTPQVSLIHIRGHSMKKNLEHHHHHH”, the protein production entry is “failed”. Take “MLWFLTCVAALVGGYFIYGAFVEKVFGINEKRQTPAHTKTDGVDYVPMSTPKVYLVQLLNIAGVGPIFGPIMGALYGPAAMLWIVVGCIFAGAVHDYFSGMLSIRNGGASVPSITGRYLGNGAKHFMNIFAIVLLLLVGVVFVSAPAGMITNLINQQTDFTVSMTTMVVIIFAYYILATIVPVDKIIGRFYPLFGALLIFMSVGLMTAIAFSSEHQVLGGFEISDMVKNLNPNDMPLWPALFITIACGAISGFHATQSPLMARCMENEKNGRFVFYGAMIGEGIIALIWCTVALSFFGSLEALSEAVKNGGPGNVVYGASFGLLGVFGGVIAFLGVVILPITSGDTAFRSSRLILAEYFNMEQKTLRNRLLMAVPLFVIGAVLTQVDFGIIWRYFGFANQATAVMMLWTATAYLMRHNKLHWICTVPALFMTTVCISFILNSSTLGFGLPMQISTIAGVLASLGALAYVAKVSKGKGETDLADEEKPQGVTKTA”: the protein production result is “failed”. For the sequence “MLWGMETAVRPEPAPSPLREHLAAGLKGLHPAYFALVMATGIVSIVSDVLGLREAAALLFWLNVPAYAVLWLLVAARALRYPRALAADLASHQRGPGFFTSVAATCVLGLQLVLLRGDAAAALALWWVGMLLWCACTYAVFVALAVRDPKPTLGEGINGGWLVAVVATQSVVVLGTRALVPRYPGSEAVLFFLASLWLCGGMLYVWMISLIFYRYMFFRFSPSDLMPPYWINMGAVAISVVAGTSLAALAPGSAFLGALLPFVKGLTLMFWATATWWIPMLVLLGIWRHGGPSRIRIAYDPLYWGLVFPLGMYALCTYRLGELFAMPVLPWVARTFATVALAAWLLTAFGLAGRFLQLVVLAVRSLHAERGAAGPQPGSLERMARRS”, the protein production result is “failed”. Next, “MLWHVFYGRGRMLLSNHAQGRNFRPIFVMSDPISWTAEATERLKEIPFFVRPAARKKIENFAREAGITEITETVYEQAKQKFN”: “failed”. On to “MLYFDHWTKVPADIWRWPNFSPEEIACRSTGKVGIDPQAMDKLQALRDRLGAPLMLNSAYRSPEHNRAEGGAPASEHLKARAFDVSMINHDPAEFEAAARAVGFTGFGFYRRNNFIHVDIGPAREWGNRWFDRVPHGAPLRPAPRFSPPPKLRPETLAEDRGARGTALGAGGGVALIGALGNVVGDLNPTAQAIAFGGAIVLAASLAYLIRDKIREWA”, for which the protein production result is “failed”. On to “MLYIIGLGLYDEKDITVRGLEAVKSCDLVFLEHYTAILQCDVAKLEEFYGKKVIIGDRDLVETEADQILEPAKTKNVALLVVGDVYGATTHSDIFVRCQKMGIEVKVIHNASIMNAIGCSGLQLYRFGQTVSVCFWSEHWRPSSYYPKIKINRDNNMHTLVLLDIKVKERSEENIIKGRDIFEPPRYMTINQCIEQLLEVEKEQHLGVYDEDTMVVGMARVACADQKIVYGKMKDLLHYDFGAPMHCLLIPAPQVDDPELDHLEYFKYKPE”, for which the protein production result is listed as “not failed”. With “MLYKSVTESFNEFIIDRSDATCIRCKVCVRQCAYEVHAYEAKADALTEDNTLCIGCRRCSALCPTGAITIRSNEEVFKRNESWSNAHIRNLYAQADTGGILLAAMGNPAKYPIYWDHMLLDASQVTNPSIDPLREPMELRTYLGKKPHSIEVVRDEQTGKPKLATKLTPQIKMEYPFIFSAMSYGALNLNAHKAMAMAAKELGTLYNTGEGGLHRDLYQYGSNVMVQVASGRFGVSEAYLNAGVAIEIKVGQGAKPGIGGHLPGEKVNDQISETRMIPAGADAISPAPHHDIYSIEDLRQLIFALKEATNYTKPVSVKIAAVHHVAAIASGVARAGADIITIDGFRGGTGAAPQVIRDNVGIPMELALAAVDARLRDEGIRNQVSIVVGGGVRSSGDAIKAIALGADAINMGTSTLLALGCTLCQRCYTGKCPWGITTNNPYLAKRLNPELGAERLVNLVHAWGHEMKEILGGMGLNALESLRGNRYKLRALGLTEKDMNILGVMPAGE”, the protein production entry is “failed”.

For “MMADEEEEVKPILQKLQELVDQLYSFRDCYFETHSVEDAGRKQQDVRKEMEKTLQQMEEVVGSVQGKAQVLMLTGKALNVTPDYSPKAEELLSKAVKLEPELVEAWNQLGEVYWKKGDVAAAHTCFSGALTHCRNKVSLQNLSMVLRQLRTDTEDEHSHHVMDSVRQAKLAVQMDVHDGRSWYILGNSYLSLYFSTGQNPKISQQALSAYAQAEKVDRKASSNPDLHLNRATLHKYEESYGEALEGFSRAAALDPAWPEPRQREQQLLEFLDRLTSLLESKGKVKTKKLQSMLGSLRPAHLGPCSDGHYQSASGQKVTLELKPLSTLQPGVNSGAVILGKVVFSLTTEEKVPFTFGLVDSDGPCYAVMVYNIVQSWGVLIGDSVAIPEPNLRLHRIQHKGKDYSFSSVRVETPLLLVVNGKPQGSSSQAVATVASRPQCE”, the protein production entry was “failed”.
